Test results from patent US20140112926A1.

Tests used:
[1] = target: GST-tagged version of human FcγRIIIA (human) (UniProt P08637); assay: AlphaLISA vs biotin-huIgG, supernatant, round 1
[2] = target: GST-tagged version of human FcγRIIIA (human) (UniProt P08637); assay: AlphaLISA vs biotin-huIgG, supernatant, round 2
[3] = target: GST-tagged version of human FcγRIIIA (human) (UniProt P08637); assay: AlphaLISA vs biotin-huIgG, supernatant, round 3

GST-tagged version of human FcγRIIIA (human), sequence (P08637 17-208 limits assumed): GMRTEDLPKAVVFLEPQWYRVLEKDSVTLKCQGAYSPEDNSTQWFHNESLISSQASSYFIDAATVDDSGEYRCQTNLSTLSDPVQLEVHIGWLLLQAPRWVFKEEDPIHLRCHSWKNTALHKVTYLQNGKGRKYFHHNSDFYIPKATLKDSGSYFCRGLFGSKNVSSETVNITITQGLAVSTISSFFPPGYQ

Row | % inhibition [1] | Alpha signal [1] | % inhibition [2] | Alpha signal [2] | % inhibition [3] | Alpha signal [3] | Substance
1 | 82.7% | 13100 | 86.2% | 11100 | 87.5% | 9800 | scFv-Fc/Fc, Q311M in dummy Fc (Fc fusion)
2 | 69.2% | 23400 | 76.5% | 18900 | 65.4% | 27200 | scFv-Fc/Fc, L309K in scFv-Fc (Fc fusion)
3 | 84.8% | 11600 | 83% | 13700 | 84.1% | 12500 | scFv-Fc/Fc, F243V + S239T in dummy Fc (Fc fusion)
4 | 43.3% | 43100 | 53.1% | 37700 | 58.7% | 32400 | scFv-Fc/Fc, F243M in dummy Fc (Fc fusion)
5 | 40.6% | 45100 | 47.3% | 42400 | 51.8% | 37900 | scFv-Fc/Fc, K246S in dummy Fc (Fc fusion)
6 | 73.4% | 20200 | 73.4% | 21400 | 67.6% | 25400 | scFv-Fc/Fc, K334V + D413N in dummy Fc (Fc fusion)
7 | 37.4% | 47500 | 39.6% | 48500 | 43.3% | 44500 | scFv-Fc/Fc, R255N in dummy Fc (Fc fusion)
8 | 64.9% | 26700 | 70.9% | 23400 | 68.1% | 25100 | scFv-Fc/Fc, K334L in dummy Fc (Fc fusion)
9 | 25.8% | 56400 | – | 57500 | – | 57300 | scFv-Fc/Fc, K288I in scFv-Fc (from UniProt P0DOX5 218-449; P0DOX5 218-449) (Fc fusion)
10 | 20.2% | 60600 | 22.6% | 62200 | 21.6% | 61600 | scFv-Fc/Fc, H268K in scFv-Fc (from UniProt P0DOX5 218-449; P0DOX5 218-449) (Fc fusion)
11 | 31.5% | 52100 | 36.5% | 51000 | 40.2% | 47000 | scFv-Fc/Fc, K248Y in dummy Fc (Fc fusion)
12 | 68.7% | 23800 | – | 19700 | 63.6% | 28600 | scFv-Fc/Fc, N315A in scFv-Fc (Fc fusion)
13 | 27.1% | 55400 | 36.6% | 51000 | 26.2% | 58000 | scFv-Fc/Fc, A330M in scFv-Fc (Fc fusion)
14 | 0% | 76000 | 0% | 80400 | 0% | 78600 | scFv-Fc/Fc, no substitution (charge pair mutations only) (Fc fusion)
15 | 84.9% | 11500 | 85.4% | 11800 | 66.7% | 26100 | scFv-Fc/Fc, S239E + K340N in dummy Fc (Fc fusion)
16 | 59.9% | 30500 | 60.5% | 31800 | 63.3% | 28800 | scFv-Fc/Fc, T256V in dummy Fc (Fc fusion)
17 | 91.9% | 6120 | 92.3% | 6160 | 87.4% | 9870 | scFv-Fc/Fc, S239D in dummy Fc (Fc fusion)
18 | 24.5% | 57400 | 35.2% | 52100 | 34.7% | 51300 | scFv-Fc/Fc, I253K in scFv-Fc (Fc fusion)
19 | 29.1% | 53900 | 34.6% | 52600 | 24.2% | 59500 | scFv-Fc/Fc, K290W in scFv-Fc (Fc fusion)
20 | 27.5% | 55100 | 42.9% | 45900 | 35.7% | 50500 | scFv-Fc/Fc, L234Y in scFv-Fc (Fc fusion)
21 | – | 30100 | – | 35400 | – | 32200 | scFv-Fc/Fc, E294L in dummy Fc (Fc fusion)
22 | 25.8% | 56400 | 32.7% | 54100 | 25.6% | 58400 | scFv-Fc/Fc, A330V in dummy Fc (Fc fusion)
23 | – | 43800 | – | 44500 | – | 42800 | scFv-Fc/Fc, K246V in dummy Fc (Fc fusion)
24 | 39.4% | – | 28.6% | 57400 | 29.7% | 55200 | scFv-Fc/Fc, F243L in scFv-Fc (Fc fusion)
25 | – | 24300 | – | 22900 | 76.8% | 18200 | scFv-Fc/Fc, E294L in scFv-Fc (Fc fusion)
26 | 89.8% | 7790 | 92.2% | 6260 | 91.1% | 7020 | scFv-Fc/Fc, L235S in scFv-Fc (Fc fusion)
27 | 66.7% | 25300 | 72.9% | 21800 | 68.5% | 24800 | scFv-Fc/Fc, Y296W in scFv-Fc (Fc fusion)
28 | – | 32500 | – | 34800 | – | 33700 | scFv-Fc/Fc, S239E in dummy Fc (Fc fusion)
